The values below come from patent US20040265963A1.

For assay [1], the target named is T1, biotinylated phosphorylated JAK2 WT peptide (p-JAK2 WT) (human (the JAK2 WT sequence is the same for both mice and humans)).
T1 chain: LPQDKEYYKVKEP
Description: solid phase binding assay, biotinylated peptide on immobilized Tkip (FIG. 4).

Assay [2] deals with Recombinant human JAK2 immobilized on agarose beads (human), O60674. Description: cell-based or functional assay.
Recombinant human JAK2 immobilized on agarose beads (human), O60674, sequence (O60674 whole entry): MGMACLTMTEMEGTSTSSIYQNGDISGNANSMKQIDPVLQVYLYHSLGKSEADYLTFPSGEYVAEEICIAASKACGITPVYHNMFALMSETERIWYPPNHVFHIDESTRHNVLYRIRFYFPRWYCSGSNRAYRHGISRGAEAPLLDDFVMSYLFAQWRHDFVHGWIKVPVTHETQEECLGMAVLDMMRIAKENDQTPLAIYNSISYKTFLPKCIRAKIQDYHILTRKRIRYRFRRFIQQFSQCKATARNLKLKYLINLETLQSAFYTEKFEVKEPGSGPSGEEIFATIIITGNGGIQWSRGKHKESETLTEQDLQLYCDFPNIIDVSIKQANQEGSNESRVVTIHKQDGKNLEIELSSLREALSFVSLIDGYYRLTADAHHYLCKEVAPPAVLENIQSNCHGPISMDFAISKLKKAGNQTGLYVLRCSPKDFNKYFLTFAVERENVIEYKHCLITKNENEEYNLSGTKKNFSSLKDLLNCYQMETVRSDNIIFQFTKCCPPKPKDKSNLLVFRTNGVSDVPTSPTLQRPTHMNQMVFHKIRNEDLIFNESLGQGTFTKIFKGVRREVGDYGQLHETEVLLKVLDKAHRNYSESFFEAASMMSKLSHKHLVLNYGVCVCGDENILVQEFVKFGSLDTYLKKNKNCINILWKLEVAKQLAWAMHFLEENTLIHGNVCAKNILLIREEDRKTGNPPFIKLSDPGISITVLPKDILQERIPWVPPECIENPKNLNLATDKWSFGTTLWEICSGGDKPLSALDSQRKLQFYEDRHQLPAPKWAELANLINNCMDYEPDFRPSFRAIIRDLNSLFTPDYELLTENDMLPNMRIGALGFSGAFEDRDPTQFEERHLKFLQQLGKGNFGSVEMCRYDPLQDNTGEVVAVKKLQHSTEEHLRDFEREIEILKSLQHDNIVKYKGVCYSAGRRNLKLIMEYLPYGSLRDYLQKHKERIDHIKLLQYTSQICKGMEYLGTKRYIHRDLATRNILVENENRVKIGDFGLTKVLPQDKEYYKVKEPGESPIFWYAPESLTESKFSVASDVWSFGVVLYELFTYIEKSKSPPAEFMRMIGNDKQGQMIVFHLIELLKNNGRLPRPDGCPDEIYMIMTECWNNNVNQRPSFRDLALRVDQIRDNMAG

The molecule WLVFFVIFYFFR (modifications not checked) [Tkip (tyrosine kinase inhibitor peptide), …] came in with a fold lower fifty percent endpoint concentration against unphosphorylated JAK2 WT in assay [1] of 9 fold. The inhibition of 32P incorporation into JAK2/IFNGR-1 (Tkip at 50 µM) in assay [2] was over 95%.
